Data: article PMC5674894
Read-outs that look alike come from different tables or passages of the source.

How the values were obtained:
Test in all cases: FRET or BRET
[1] = target: RNC_(RodZ) bearing the mutant TMD with two arginines introduced (UniProt P27434)
[2] = target: RNC_(RodZ160): ribosome-nascent chain complex with a RodZ nascent chain of 160 amino acids (UniProt P27434)
[3] = target: RNC_(RodZ): ribosome-nascent chain complex displaying the N-terminal 180 amino acids of RodZ (UniProt P27434)
[4] = target: RNC_(RodZ): ribosome-nascent chain complex displaying the N-terminal 180 amino acids of RodZ (UniProt P27434); remark: listed apart in the source
[5] = target: RNC_(RodZ): ribosome-nascent chain complex displaying the N-terminal 180 amino acids of RodZ (UniProt P27434); remark: listed apart in the source

Kd [1]: 0.0259 µM | Kd [2]: 0.00094 µM | Kd [3]: 0.001 µM | reduction in Cm donor fluorescence (FRET) [3]: 44% | Kd [4]: 0.055 µM | Kd [5]: 0.019 µM
Substance: SecA(C98S/S12C) labeled at residue 12 with BODIPY-FL (from UniProt P10408 1-901) (enzyme)
